The values below come from article PMC11082194, “A common polymorphism in the Intelectin-1 gene influences mucus plugging in severe asthma” (Nature Communications, 2024).

For test [1], the target named is purified human airway mucins. Briefly: ELISA; purified mucins coated on NUNC Maxisorp plate overnight at 4 °C, 20 μg/mL, carbonate-bicarbonate buffer pH 9.6; FLAG-ITLN-1 10 μg/mL for 2 hours in binding buffer B (TBS, 3 mM CaCl3, 1% BSA, 0.05% Tween-20, 50 mM EDTA); anti-FLAG HRP, absorbance 450 nm; also with galactose 100 mM, heparin 150 μg/mL or dextran sulfate 150 μg/mL.

Test [2] concerns the target T1, FLAG-tagged recombinant ITLN-1 (human, UniProt Q8WWA0 19-298).
T1 construct: intelectin-1 (ITLN-1), human, recombinant; also called intelectin-1; recombinant human ITLN-1 protein; source: bought: Sigma, SRP8047
Nature of the test: ELISA; C-terminal recombinant peptide coated on NUNC Maxisorp plate overnight at 4 °C, 20 μg/mL, carbonate-bicarbonate buffer pH 9.6; FLAG-ITLN-1 10 μg/mL for 2 hours in binding buffer A (TBS, 3 mM CaCl3, 1% BSA, 0.05% Tween-20); anti-FLAG HRP, absorbance 450 nm; also with heparin 150 μg/mL. The settings on record: both partners purified. For orientation: ELISA stands for enzyme-linked immunosorbent assay.

In test [1], “FLAG-tagged recombinant ITLN-1 (from UniProt Q8WWA0 19-298) (natural protein)” returned a percent decrease of binding with dextran sulfate (150 μg/mL) of 74% and a percent decrease of binding with heparin (150 μg/mL) of 51.9%.

B1: MUC5AC C-terminal recombinant peptide (AA5568-AA5654) (domain or fragment, human, UniProt P98088 5568-5654, looked up)
chain: YSLEGNTVEHRCQCCQELRTSLRNVTLHCTDGSSRAFSYTEVEECGCMGRRCPAPGDTQHSEEAEPEPSQEAESGSWERGVPVSPMH
notes: MUC5AC mucin, human, C-terminal recombinant peptide, residues 5568-5654; also called C-terminal MUC5AC; C-terminal peptide of MUC5AC; source: bought: Mybiosource, #MBS2009104
Turning to B1, the binding result in test [2] is “binds”.
